The source of these data is patent publication US20240368565A1 (PROMEGA, published 2024).

One assay deals with FKBP-SmHT-HiBiT. Kind of assay: cell-based or functional assay.
Assay [1] concerns the target T1, Biotin-HaloTag[3-19] (E14K)-4xGly/Ser-VS-HiBIT (N-terminal biotin).
T1 construct: Synthetic peptide
T1 peptide: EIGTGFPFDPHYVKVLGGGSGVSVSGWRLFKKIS
The assay is described as follows: BLI; biotin-peptide on streptavidin probe; PBST, 25 C.

For assay [2], the target named is T2, Biotin-HaloTag[3-19] (D9R + L16R)-4xGly/Ser-VS-HiBiT (N-terminal biotin).
T2 construct: Synthetic peptide; also called HaloTag[3-19](D9R + L16R)-4xGS-VSHiBiT
T2 peptide: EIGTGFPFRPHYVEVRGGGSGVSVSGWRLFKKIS
The description is as above.

In assay [3] the target is T3, Biotin-HaloTag[3-19] (D9R)-4xGly/Ser-VS-HiBiT (N-terminal biotin).
T3 construct: Synthetic peptide
T3 peptide: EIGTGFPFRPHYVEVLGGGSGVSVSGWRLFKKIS
The assay is described as above.

For assay [4], the target named is T4, Biotin-HaloTag[3-19] (G3K)-4xGly/Ser-VS-HiBIT (N-terminal biotin).
T4 construct: Synthetic peptide
T4 peptide: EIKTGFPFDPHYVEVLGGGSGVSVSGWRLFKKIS
The assay is described as above.

Assay [5] concerns the target T5, Biotin-HaloTag[3-19] (I2R)-4xGly/Ser-VS-HiBiT (N-terminal biotin).
T5 construct: Synthetic peptide; also called HaloTag[3-19](12R)-4×Gly/Ser-VS-HiBiT; DualTag peptide
T5 peptide: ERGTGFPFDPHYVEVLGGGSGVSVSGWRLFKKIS
Described as above.

Assay [6] addresses T6, Biotin-HaloTag[3-19] (I2R + G5R)-4xGly/Ser-VS-HiBiT (N-terminal biotin).
T6 construct: Synthetic peptide; also called HaloTag[3-19](I2R + G5R)-4xGS-VSHiBiT
T6 peptide: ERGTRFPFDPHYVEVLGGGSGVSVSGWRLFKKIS
The assay is described as above.

The target of assay [7] is T7, Biotin-HaloTag[3-19] (G5R)-4xGly/Ser-VS-HiBiT (N-terminal biotin).
T7 construct: Synthetic peptide
T7 peptide: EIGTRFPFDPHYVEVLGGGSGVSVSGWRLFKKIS
The assay is described as above.

Assay [8] addresses T8, Biotin-HaloTag[3-19] (I2R + D9R)-4xGly/Ser-VS-HiBiT (N-terminal biotin).
T8 construct: Synthetic peptide; also called HaloTag[3-19](I2R + D9R)-4xGS-VSHiBiT
T8 peptide: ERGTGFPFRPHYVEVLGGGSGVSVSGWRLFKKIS
Described as above.

The target of assay [9] is T9, Biotin-HaloTag[3-19] (L16R)-4xGly/Ser-VS-HiBiT (N-terminal biotin).
T9 construct: Synthetic peptide
T9 peptide: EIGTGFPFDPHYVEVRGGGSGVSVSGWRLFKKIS
The assay is described as above.

Assay [10] addresses T10, Biotin-HaloTag[3-19] (G3K + E14K)-4xGly/Ser-VS-HiBiT (N-terminal biotin).
T10 construct: Synthetic peptide; also called HaloTag[3-19](G3K + E14K)-4xGS-VSHiBiT
T10 peptide: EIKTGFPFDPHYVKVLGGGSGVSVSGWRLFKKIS
The description is as above.

The target of assay [11] is T11, Biotin-HaloTag[3-19] (G3K + L16R)-4xGly/Ser-VS-HiBiT (N-terminal biotin).
T11 construct: Synthetic peptide; also called HaloTag[3-19](G3K + L16R)-4xGS-VSHiBiT
T11 peptide: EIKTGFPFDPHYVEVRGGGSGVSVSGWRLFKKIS
The description is as above.

Assay [12] addresses T12, Biotin-HaloTag[3-19] (I2R + G17R)-4xGly/Ser-VS-HiBiT (N-terminal biotin).
T12 construct: Synthetic peptide; also called HaloTag[3-19](I2R + G17R)-4xGS-VSHiBiT
T12 peptide: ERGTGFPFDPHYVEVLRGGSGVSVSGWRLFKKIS
The assay is described as above.

The target in assay [13] is T13, Biotin-HaloTag[3-19] (D9R + E14K)-4xGly/Ser-VS-HiBiT (N-terminal biotin).
T13 construct: Synthetic peptide; also called HaloTag[3-19](D9R + E14K)-4xGS-VSHiBiT
T13 peptide: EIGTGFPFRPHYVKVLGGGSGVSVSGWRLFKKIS
Described as above.

Assay [14] has as its target T14, Biotin-HaloTag[3-19] (I2R + G3K)-4xGly/Ser-VS-HiBiT (N-terminal biotin).
T14 construct: Synthetic peptide; also called HaloTag[3-19](I2R + G3K)-4xGS-VSHiBIT
T14 peptide: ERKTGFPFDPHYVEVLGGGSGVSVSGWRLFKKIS
Described as above.

The target in the next assay is T15, Biotin-VS-HiBiT.
T15 construct: Synthetic peptide
T15 peptide: Biotin-VSVSGWRLFKKIS
Described as above.

Values joined by “and” are separate entries in the source; they are usually repeats but may differ in a detail not shown here. Equal entries are not always repeated. Ends that are not written are not given here. * marks the point of attachment. Biotin = O=C1N[C@H]2[C@H](CS[C@H]2CCCCC(=O)*)N1

B1: HaloTag[22-297](Q145H+P154R)-LgBiT (other)
chain: MMHYVDVGPRDGTPVLFLHGNPTSSYVWRNIIPHVAPTHRCIAPDLIGMGKSDKPDLGYFFDDHVRFMDAFIEALGLEEVVLVIHDWGSALGFHWAKRNPERVKGIAFMEFIRPIPTWDEWPEFARETFQAFRTTDVGRKLIIDHNVFIEGTLRMGVVRPLTEVEMDHYREPFLNPVDREPLWRFPNELPIAGEPANIVALVEEYMDWLHQSPVPKLLFWGTPGVLIPPAEAARLAKSLPNCKAVDIGPGLNLLQEDNPDLIGSEIARWLSTLEISGGSGGSGGGGSGGMVFTLEDFVGDWEQTAAYNLDQVLEQGGVSSLLQNLAVSVTPIQRIVRSGENALKIDIHVIIPYEGLSADQMAQIEEVFKVVYPVDDHHFKVILPYGTLVIDGVTPNMLNYFGRPYEGIAVFDGKKITVTGTLWNGNKIIDERLITPDGSMLFRVTINSGSGHHHHHH
As to B1, the “luminescence (FIG. 9)” value with FKBP-SmHT-HiBiT is about 100 fold.

B2: HaloTag[22-297](M2F + K140E)-12xGly/Ser-LgBiT-3xGly/Ser-6xHis (other)
chain: MFHYVDVGPRDGTPVLFLHGNPTSSYVWRNIIPHVAPTHRCIAPDLIGMGKSDKPDLGYFFDDHVRFMDAFIEALGLEEVVLVIHDWGSALGFHWAKRNPERVKGIAFMEFIRPIPTWDEWPEFARETFQAFRTTDVGRELIIDQNVFIEGTLPMGVVRPLTEVEMDHYREPFLNPVDREPLWRFPNELPIAGEPANIVALVEEYMDWLHQSPVPKLLFWGTPGVLIPPAEAARLAKSLPNCKAVDIGPGLNLLQEDNPDLIGSEIARWLSTLEISGGSGGSGGGGSGGMVFTLEDFVGDWEQTAAYNLDQVLEQGGVSSLLQNLAVSVTPIQRIVRSGENALKIDIHVIIPYEGLSADQMAQIEEVFKVVYPVDDHHFKVILPYGTLVIDGVTPNMLNYFGRPYEGIAVFDGKKITVTGTLWNGNKIIDERLITPDGSMLFRVTINSGSGHHHHHH
notes: Purified tandem polypeptide reporter variant
With B2, the on-rate (kon) was 108000 M⁻¹ s⁻¹ in assay [1]; 134000 M⁻¹ s⁻¹ in [2]; 86600 M⁻¹ s⁻¹ in [3]; 73000 M⁻¹ s⁻¹ in assay [4]; 66700 M⁻¹ s⁻¹ and 70000 M⁻¹ s⁻¹ in assay [5]; 95100 M⁻¹ s⁻¹ in assay [6]. Besides, the on-rate constant (kon) in [7] was found to be 85300 M⁻¹ s⁻¹; in assay [8], 128000 M⁻¹ s⁻¹; in assay [9], 77900 M⁻¹ s⁻¹; in assay [10], 128000 M⁻¹ s⁻¹; in assay [11], 97100 M⁻¹ s⁻¹; in assay [12] it was 93300 M⁻¹ s⁻¹. The kon in assay [13] was determined as 152000 M⁻¹ s⁻¹; in assay [14], 104000 M⁻¹ s⁻¹. In addition, the Kd in assay [3] is 0.126 nM; in assay [4], 0.264 nM; in assay [5] it was 0.684 nM and 0.466 nM; in assay [13], 0.111 nM. Also, the koff in assay [3] is 1.09e-05 s⁻¹; in assay [4] it was 1.93e-05 s⁻¹; in [5], 4.56e-05 s⁻¹ and 3.26e-05 s⁻¹; in assay [13], 1.69e-05 s⁻¹.

B3: HaloTag[22-297](M2F + D53G + V177E)-12xGly/Ser-LgBiT-3xGly/Ser-6xHis (other)
chain: MFHYVDVGPRDGTPVLFLHGNPTSSYVWRNIIPHVAPTHRCIAPDLIGMGKSGKPDLGYFFDDHVRFMDAFIEALGLEEVVLVIHDWGSALGFHWAKRNPERVKGIAFMEFIRPIPTWDEWPEFARETFQAFRTTDVGRKLIIDQNVFIEGTLPMGVVRPLTEVEMDHYREPFLNPEDREPLWRFPNELPIAGEPANIVALVEEYMDWLHQSPVPKLLFWGTPGVLIPPAEAARLAKSLPNCKAVDIGPGLNLLQEDNPDLIGSEIARWLSTLEISGGSGGSGGGGSGGMVFTLEDFVGDWEQTAAYNLDQVLEQGGVSSLLQNLAVSVTPIQRIVRSGENALKIDIHVIIPYEGLSADQMAQIEEVFKVVYPVDDHHFKVILPYGTLVIDGVTPNMLNYFGRPYEGIAVFDGKKITVTGTLWNGNKIIDERLITPDGSMLFRVTINSGSGHHHHHH
notes: as for B2
In assay [5], B3 yielded a dissociation constant (Kd) of 0.669 nM, a koff of 4.09e-05 s⁻¹ and a kon of 61300 M⁻¹ s⁻¹.

B4: HaloTag[22-297](M2F + F148M + V177E)-12xGly/Ser-LgBiT-3xGly/Ser-6xHis (other)
chain: MFHYVDVGPRDGTPVLFLHGNPTSSYVWRNIIPHVAPTHRCIAPDLIGMGKSDKPDLGYFFDDHVRFMDAFIEALGLEEVVLVIHDWGSALGFHWAKRNPERVKGIAFMEFIRPIPTWDEWPEFARETFQAFRTTDVGRKLIIDQNVMIEGTLPMGVVRPLTEVEMDHYREPFLNPEDREPLWRFPNELPIAGEPANIVALVEEYMDWLHQSPVPKLLFWGTPGVLIPPAEAARLAKSLPNCKAVDIGPGLNLLQEDNPDLIGSEIARWLSTLEISGGSGGSGGGGSGGMVFTLEDFVGDWEQTAAYNLDQVLEQGGVSSLLQNLAVSVTPIQRIVRSGENALKIDIHVIIPYEGLSADQMAQIEEVFKVVYPVDDHHFKVILPYGTLVIDGVTPNMLNYFGRPYEGIAVFDGKKITVTGTLWNGNKIIDERLITPDGSMLFRVTINSGSGHHHHHH
notes: as for B2
With B4, the Kd in [4] was determined as 0.102 nM; in assay [5], 0.509 nM; in assay [7], 0.485 nM; with Biotin-VS-HiBiT, 2.4 nM. Further, the koff worked out at 5.03e-06 s⁻¹ in assay [4], 2.75e-05 s⁻¹ in assay [5], 2.23e-05 s⁻¹ in assay [7] and 0.000628 s⁻¹ with Biotin-VS-HiBiT. In addition, the on-rate (kon) in assay [4] was 49500 M⁻¹ s⁻¹; in assay [5] it was 54000 M⁻¹ s⁻¹; in assay [7], 46000 M⁻¹ s⁻¹; in the assay with Biotin-VS-HiBiT, 261000 M⁻¹ s⁻¹.

B5: HaloTag[22-297](M2F)-12xGly/Ser-LgBiT (other)
chain: MFHYVDVGPRDGTPVLFLHGNPTSSYVWRNIIPHVAPTHRCIAPDLIGMGKSDKPDLGYFFDDHVRFMDAFIEALGLEEVVLVIHDWGSALGFHWAKRNPERVKGIAFMEFIRPIPTWDEWPEFARETFQAFRTTDVGRKLIIDQNVFIEGTLPMGVVRPLTEVEMDHYREPFLNPVDREPLWRFPNELPIAGEPANIVALVEEYMDWLHQSPVPKLLFWGTPGVLIPPAEAARLAKSLPNCKAVDIGPGLNLLQEDNPDLIGSEIARWLSTLEISGGSGGSGGGGSGGMVFTLEDFVGDWEQTAAYNLDQVLEQGGVSSLLQNLAVSVTPIQRIVRSGENALKIDIHVIIPYEGLSADQMAQIEEVFKVVYPVDDHHFKVILPYGTLVIDGVTPNMLNYFGRPYEGIAVFDGKKITVTGTLWNGNKIIDERLITPDGSMLFRVTINS
For the molecule B5, the “luminescence (FIG. 9)” value with FKBP-SmHT-HiBiT was about 100 fold.

B6: LgBiT-6xHis (other)
chain: MVFTLEDFVGDWEQTAAYNLDQVLEQGGVSSLLQNLAVSVTPIQRIVRSGENALKIDIHVIIPYEGLSADQMAQIEEVFKVVYPVDDHHFKVILPYGTLVIDGVTPNMLNYFGRPYEGIAVFDGKKITVTGTLWNGNKIIDERLITPDGSMLFRVTINSHHHHHH
notes: also called LgBiT-6×His; LgBiT alone
For the molecule B6, the association rate constant (kon) was 64800 M⁻¹ s⁻¹ in assay [2]; 53200 M⁻¹ s⁻¹ in [6]; 184000 M⁻¹ s⁻¹ in the assay with Biotin-VS-HiBiT; 83000 M⁻¹ s⁻¹ in assay [13]; 74500 M⁻¹ s⁻¹ in assay [14]. Further, the Kd came to 0.11 nM in assay [6], 5.06 nM in the assay with Biotin-VS-HiBiT and 0.323 nM in assay [14]. Besides, the koff in [6] came out at 5.86e-06 s⁻¹; with Biotin-VS-HiBiT it was 0.000931 s⁻¹; in assay [14] it was 2.4e-05 s⁻¹.
